In US10676527B2, “Methods and compositions for modulation of blood-neural barrier” (Ludwig Institute for Cancer Research Ltd, priority 2006, dated 2020):

Columns and labels:
BBB = experiment: Evans Blue extravasation (BBB opening) after intraventricular injection; format: in vivo; conditions: C57BL6 mice, 2 μl intraventricular, 3 μM, 1 hour after injection
Description: (§1) Wild type C57BL6 mice (10 Week old) were injected intraventricularly into the dorsal third ventricle with 2 μl of PBS, active PDGF-AA, PDGF-BB (both from Preprotech Inc.) and PDGF-CC (see below) (3 μM). Evans Blue was given intravenously immediately after the injection. One hour after the injection, the animals were perfused with PBS and the brain tissue was removed and processed for Evans Blue extravasation.
as §1, with “of either” for “of”, “PBS, wild type murine tPA (3 μM),” for “PBS,”, “active” for “active PDGF-AA, PDGF-BB (both from Preprotech Inc.) and”, “(3 μM), or wild type murine tPA (3 μM) plus active PDGF-CC” for “(see below)”
Wt C57BL6 mice (10 Week old) were injected intraventricularly with 3 μl of either PBS, wild type murine tPA (3 μM), wild type murine tPA (3 μM) with rabbit anti-PDGF-CC (150 μg/ml). Evans Blue was given intravenously immediately after the injection. One hour after the injection, the animals were perfused with PBS and the brain tissue was removed and processed for Evans Blue extravasation.

cerebral vessels = experiment: electron microscopy of cerebral vessels after intraventricular injection (edema); format: in vivo; conditions: mice, 2 μL at 1 μM intraventricular, 1 hour after injection, cortex
Description: Electron microscopy of vessels in the brain from mice treated by intraventricular injection 1 hour prior to analysis. Panel A, PBS; panel B, tPA (2 μL at a concentration of a 1 μM); panels C and D PDGF-CC (3 μL at a concentration of a 1 μM). Panels B-D show arterioles surrounded by fluid-filled spaces indicative of developing edema. The approximate magnification is indicated on each panel.
Specifically, tPA or active PDGF-CC (2 μL each at a concentration a 1 μM) were injected intraventricularly into mice, and morphological analysis of the cerebrovascular structure was performed. PBS was used as control. […] FIGS. 5B-D show arterioles surrounded by fluid-filled spaces indicative of developing edema. The approximate magnification is indicated on each panel.

Molecule | vascular permeability / opening of the BBB (Evans Blue extravasation) (BBB; Example 1, FIG. 1) | opening of the BBB (Evans Blue extravasation) (BBB; Example 3, FIG. 3) | edema formation around cerebral vessels (transmission electron micrographs) (cerebral vessels)
PDGF-BB: active platelet-derived growth factor BB dimer (from Preprotech Inc.) (protein, UniProt P01127 82-190, looked up) Platelet-derived growth …: SLGSLTIAEPAMIAECKTRTEVFEISRRLIDRTNANFLVWPPCVEVQRCSGCCNNRNVQCRPTQVQLRPVQVRKIEIVRKKPIFKKATVTLEDHLACKCETVAAARPVT | induce increased vascular permeability | – | –
tPA: wild type murine tissue-type plasminogen activator, serine protease thrombolytic agent (protein, UniProt P11214 33-559, looked up) Tissue-type plasminogen …: SYRATCRDEPTQTTYQQHQSWLRPMLRSSRVEYCRCNSGLVQCHSVPVRSCSEPRCFNGGTCQQALYFSDFVCQCPDGFVGKRCDIDTRATCFEEQGITYRGTWSTAESGAECINWNSSVLSLKPYNARRPNAIKLGLGNHNYCRNPDRDLKPWCYVFKAGKYTTEFCSTPACPKGKSEDCYVGKGVTYRGTHSLTTSQASCLPWNSIVLMGKSYTAWRTNSQALGLGRHNYCRNPDGDARPWCHVMKDRKLTWEYCDMSPCSTCGLRQYKRPQFRIKGGLYTDITSHPWQAAIFVKNKRSPGERFLCGGVLISSCWVLSAAHCFLERFPPNHLKVVLGRTYRVVPGEEEQTFEIEKYIVHEEFDDDTYDNDIALLQLRSQSKQCAQESSSVGTACLPDPNLQLPDWTECELSGYGKHEASSPFFSDRLKEAHVRLYPSSRCTSQHLFNKTVTNNMLCAGDTRSGGNQDLHDACQGDSGGPLVCMINKQMTLTGIISWGLGCGQKDVPGVYTKVTNYLDWIHDNMKQ | – | potent inducers of opening of the BBB | induce areas of fluid accumulation surrounding the vessels
